Laboratory results taken from US7598343B1, “Pharmaceutical formulations of bivalirudin and processes of making the same” (The Medicines Company, priority 2008, dated 2009).

Legend:
Assay type in all cases: physicochemical
[1] = Isoelectric point of bivalirudin
[2] = Asp^9-bivalirudin level by HPLC in compounding solution under high shear mixing (Example 1, third part)
From the text: In a third part of the study, the final compounding solution from the first part of the study was placed into a recirculation vessel for use in a recirculation water bath (Precision Model 181) to be subjected to high shear mixing using a Silverson Laboratory Emulsifier (Model L4RT). Prior to this study, it was thought that bivalirudin solutions were unstable to both heat and shear, thus requiring extreme care in handling bivalirudin during the compounding process. Before subjecting the compounding solution to high shear mixing, the level of Asp^9-bivalirudin was recorded (measurement #1). The compounding solution was then subjected to high shear mixing at ˜6000 rpm for 30 minutes without use of the recirculation water bath; the temperature of the compounding solution due to the high shear mixing rose to about 36° C. A sample was then measured for Asp^9-bivalirudin level (measurement #2). The mixing speed was then slowed to 5000 rpm for 120 minutes and the temperature was measured at about 33° C., and another sample was analyzed for Asp^9-bivalirudin level (measurement #3).

[3] = Asp^9-bivalirudin level by HPLC after constant-rate addition of pH-adjusting solution under high shear mixing (Example 3)
Protocol: The bivalirudin solution (675 mL) comprised 64.4 g dissolved in 2.64% w/w mannitol solution. The bivalirudin solution was divided in half for evaluation of adding the pH-adjusting solution at two different mixing rates. The bivalirudin solution was placed in a vessel with a high shear mixer.
The pH-adjusting solution (131.2 mL) comprised 0.5 N sodium hydroxide in a 2.64% w/w mannitol solution. The pH-adjusting solution was loaded into a burette, which was connected on the bottom to a tube with a hose. The tube was positioned at the base of the high shear mixer blade inside the mixing vessel containing the bivalirudin solution. A clamp was used to restrict the pH-adjusting solution from passing through the hose.
The speed of the high shear mixer (Silverson Laboratory Emulsifier Model L4RT) was set to either 1500 rpm or 3000 rpm. The clamp on the hose was removed and the pH-adjusting solution was then added to the bivalirudin solution at a controlled, constant rate of approximately 2 L/min.
The volume of the compounding solution was then adjusted to a final volume of 562.5 mL.
For the compounding solution mixed at 1500 rpm, after the pH-adjusting solution was added, the mixing speed was increased to approximately 4500 rpm for a short period of time to allow faster and complete dissolution, and then reduced to 1500 rpm until the solution was completely dissolved. After complete dissolution, the resulting compounding solution was moved from the vessel to a beaker which contained a stir bar. The solution was adjusted to a target pH of 5.3 using 19 mL of the pH-adjusting solution, and then the volume was adjusted to a final volume of 562.5 mL.
For both mixing conditions, the pH was monitored throughout the addition of the pH-adjusting solution to the bivalirudin solution to form the compounding solution. The level of Asp^9-bivalirudin was measured by HPLC before (baseline) addition of the pH-adjusting solution, after the addition of the pH-adjusting solution (measurement #2), and after the volume of the compounding solution was adjusted to mark (measurement #3).

[4] = Asp^9-bivalirudin level by HPLC after adding pH-adjusting solution in four equal portions with inefficient mixing (Example 1, first part)
Protocol: In a first part of the study, the bivalirudin solution (˜600 mL) comprised bivalirudin at a concentration of ˜0.1 mg/mL in a 2.64% w/w mannitol solution. The pH-adjusting solution (233 mL) comprised 0.5 N sodium hydroxide in a 2.64% w/w mannitol solution. Asp^9-bivalirudin levels were measured throughout the experiment by high-performance liquid chromatography (HPLC). pH was also measured through the experiment. One measurement of Asp^9-bivalirudin was taken immediately after the bivalirudin solution was formed (baseline).
The pH-adjusting solution was added to the bivalirudin solution in four equal portions over the total duration of about 1 hour at a temperature of 5-8° C., each addition separated by about 15 minutes. The resulting compounding solution was mixed at between 600 rpm and 700 rpm throughout the addition of the first and second portions of the pH-adjusting solution, and the pH and Asp^9-bivalirudin levels were recorded (measurements #1 and #2). During the addition of the third portion, the mixer was turned off and the pH and Asp^9-bivalirudin levels were recorded (measurement #3A). The mixture was then subjected to high shear mixing at 4000 rpm for 30 seconds and the pH and Asp^9-bivalirudin levels were recorded (measurement #3B). During addition of the fourth portion, the mixer was turned off and the levels of pH and Asp^9-bivaluridin were recorded (measurement #4A). Mixing was then continued for, at least, two minutes at 5300 rpm and the pH was and Asp^9-bilvairudun levels were recorded (measurement #4B). The mixing rate was decreased to about 3600 rpm for 1 hour and the pH and Asp^9-bivalirudin levels were recorded (measurement #5). A portion of the material from measurement #4a was allowed to stand for 7 hours and the pH and Asp^9-bivalirudin levels were recorded (measurement #6).

[5] = Asp^9-bivalirudin level by HPLC after adding pH-adjusting solution in two portions of 75% and 25% at 400 rpm (Example 2)
Protocol: The bivalirudin solution (˜760 mL) comprised bivalirudin at a concentration of 0.050 mg/ml dissolved in a 2.64% w/w mannitol solution. The pH-adjusting solution (233 mL) comprised 0.5 N sodium hydroxide in a 2.64% w/w mannitol solution. The experiment was conducted at a temperature of about 8° C.
The pH-adjusting solution was divided into a 75% portion and a 25% portion of the total pH-adjusting solution volume. First, the pH and Asp^9-bivalirudin levels were measured before addition of the pH-adjusting solution (baseline). During addition of the 75% portion, at about 400 rpm, the pH was monitored during mixing until the pH achieved a constant level at which time the Asp^9-bivalirudin level was also measured (measurement #1). A portion of this material was allowed to sit for about 6.5 hours and the amount of Asp^9-bivalirudin was again measured (measurement #2). The 25% portion of the pH-adjusting solution was added about 30 minutes after the last base addition and mixing was continued at 400 rpm. The pH was initially recorded and then both the pH and Asp^9-bivalirudin levels were measured after about 30 minutes of mixing (measurement #3). The pH and Asp^9-bivalirudin levels were again recorded after mixing at 400 rpm overnight (measurement #4).

[6] = Asp^9-bivalirudin level by HPLC in portions of compounding solution adjusted to pH 8, 9, 10, 12 over time (Example 1, second part)
Protocol: In a second part of the study, four portions of the final compounding solution from the first part of the study were removed. The pH levels of these portions were adjusted to 8, 9, 10, and 12, respectively, using additional pH-adjusting solution and high shear mixing on a Silverson Laboratory Emulsifier (Model L4RT).
Samples of the portion of the compounding solution adjusted to pH 8 were taken immediately, and after about 80 minutes, 300 minutes, and 370 minutes. Samples of the portion of the compounding solution adjusted to pH 9 were taken immediately, after about 80 minutes, and 300 minutes. Further, samples of the portion of the compounding solution adjusted to pH 10 and 12 were taken immediately, after about 80 minutes and 170 minutes.

## D-Phenylalanyl-L-Prolyl-L-Arginyl-L-Prolyl-Glycyl-Glycyl-Glycyl-Glycyl-L-Asparagyl-Glycyl-L-Aspartyl-L-Phenylalanyl-L-Glutamyl-L-Glutamyl-L-Isoleucyl-L-Prolyl-L-Glutamyl-L-Glutamyl-L-Tyrosyl-L-Leucine trifluoroacetate (salt) hydrate [bivalirudin]
[1]
  isoelectric point: about 3.6
[2]; #1: before high shear mixing, RT ~20° C.
  % Asp^9-bivalirudin: 0.71%
[2]; #2: after high shear mixing at 6000 rpm for 30 minutes, 36° C.
  % Asp^9-bivalirudin: 0.71%
[2]; #3: after mixing rate was reduced to 5000 rpm for 120 minutes, 33° C.
  % Asp^9-bivalirudin: 0.75%
[2]; high shear mixing 6000/5000 rpm
  stability to high shear mixing conditions: stable
[3]; 1500 rpm, #1 after addition of pH-adjusting solution, pH ~6.0
  % Asp^9-bivalirudin: 0.31%
[3]; 1500 rpm, #2 after compounding solution was adjusted to mark, pH 5.3
  % Asp^9-bivalirudin: 0.34%
[3]; 1500 rpm, Baseline before addition of pH-adjusting solution, pH ~2.5
  % Asp^9-bivalirudin: 0.38%
[3]; 3000 rpm, #1 after addition of pH-adjusting solution, pH ~5.6
  % Asp^9-bivalirudin: 0.41%
[3]; 3000 rpm, #2 after compounding solution was adjusted to mark, pH 5.25
  % Asp^9-bivalirudin: 0.40%
[3]; 3000 rpm, Baseline before addition of pH-adjusting solution, pH ~2.5
  % Asp^9-bivalirudin: 0.43%
[3]; high shear mixing even up to 4500 rpm
  degradation by high shear mixing: not susceptible to degradation
[4]; #2: after addition of second portion of pH-adjusting solution, pH 4.2
  % Asp^9-bivalirudin: 0.43%
[4]; #3A: after addition of third portion with no mixing, pH ~6 to 8
  % Asp^9-bivalirudin: 0.45%
[4]; #3B: same as #3A but after mixing (4000 rpm, 30 seconds), pH 5.0
  % Asp^9-bivalirudin: 0.74%
[4]; #4A: after fourth portion, sat for 10 minutes with no mixing, pH ~8.5 to 9
  % Asp^9-bivalirudin: 0.60%
[4]; #4B: same as #4A but after mixing, pH 6.0 to 6.5
  % Asp^9-bivalirudin: 0.57%
[4]; #5: same as #4A but after high speed mixing for 1 hour, pH 5.0
  % Asp^9-bivalirudin: 0.71%
[4]; #6: same as #4A but 7 hours later with no mixing, pH ~8.5 to 9
  % Asp^9-bivalirudin: 2.05%
[4]; Baseline: after bivalirudin solution was formed, pH ~2.5
  % Asp^9-bivalirudin: ~0.42%
[5]; #1: after addition of 75% portion, pH peak at 12.2 then dropped to 8-9
  % Asp^9-bivalirudin: 0.44%
[5]; #2: same as #1 but after sitting for 6.5 hours with no stirring
  % Asp^9-bivalirudin: 0.88%
[5]; #3: remaining 25% added, pH 12.4 initially then 7.7 after 30 minutes, taken from the bottom
  % Asp^9-bivalirudin: 2.19%
[5]; #3: remaining 25% added, pH 12.4 initially then 7.7 after 30 minutes, taken from the top
  % Asp^9-bivalirudin: 1.85%
[5]; #4: same as #3 but after mixing overnight, pH 5.0
  % Asp^9-bivalirudin: 1.57%
[5]; Baseline: after bivalirudin solution was formed, pH 1.71
  % Asp^9-bivalirudin: 0.42%
[6]; Baseline, pH 5
  % Asp^9-bivalirudin: 0.71%
[6]; pH 8, after pH was adjusted
  % Asp^9-bivalirudin: 0.71%
[6]; pH 8, after ~80 minutes
  % Asp^9-bivalirudin: 0.77%
[6]; pH 8, after ~300 minutes
  % Asp^9-bivalirudin: 1.11%
[6]; pH 8, after ~370 minutes
  % Asp^9-bivalirudin: 1.26%
[6]; pH 9, after pH was adjusted
  % Asp^9-bivalirudin: 0.84%
[6]; pH 9, after ~80 minutes
  % Asp^9-bivalirudin: 1.07%
[6]; pH 9, after ~300 minutes
  % Asp^9-bivalirudin: 1.84%
[6]; pH 10, after pH was adjusted
  % Asp^9-bivalirudin: 1.24%
[6]; pH 10, after ~80 minutes
  % Asp^9-bivalirudin: 2.08%
[6]; pH 10, after ~170 minutes
  % Asp^9-bivalirudin: 2.59%
[6]; pH 12, after pH was adjusted
  % Asp^9-bivalirudin: 4.71%
[6]; pH 12, after ~80 minutes
  % Asp^9-bivalirudin: 8.20%
[6]; pH 12, after ~170 minutes
  % Asp^9-bivalirudin: 10.95%
